Values quoted from earlier work, collected in paper PMC6538672.

Molecular target: RMI1:RMI2 (Homo sapiens) (UniProt Q9H9A7)
UniProt Q9H9A7, sequence (Q9H9A7 whole entry, chain 1 of 2): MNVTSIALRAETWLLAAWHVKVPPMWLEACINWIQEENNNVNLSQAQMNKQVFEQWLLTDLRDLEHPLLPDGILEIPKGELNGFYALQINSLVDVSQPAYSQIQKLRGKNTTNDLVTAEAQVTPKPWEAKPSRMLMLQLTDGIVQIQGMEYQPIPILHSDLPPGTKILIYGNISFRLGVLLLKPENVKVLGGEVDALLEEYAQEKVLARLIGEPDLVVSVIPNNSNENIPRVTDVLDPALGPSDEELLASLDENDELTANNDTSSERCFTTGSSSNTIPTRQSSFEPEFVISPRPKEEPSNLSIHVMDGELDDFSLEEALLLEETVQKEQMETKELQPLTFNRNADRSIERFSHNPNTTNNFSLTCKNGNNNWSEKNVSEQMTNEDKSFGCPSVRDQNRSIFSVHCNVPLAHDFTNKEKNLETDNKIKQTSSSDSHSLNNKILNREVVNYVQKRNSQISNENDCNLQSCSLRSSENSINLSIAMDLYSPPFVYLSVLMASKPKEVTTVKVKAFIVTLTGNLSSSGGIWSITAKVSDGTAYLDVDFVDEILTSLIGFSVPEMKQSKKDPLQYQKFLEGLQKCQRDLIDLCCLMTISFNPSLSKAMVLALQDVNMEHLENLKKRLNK
UniProt Q9H9A7, sequence (Q96E14 2-147, chain 2 of 2, further chain): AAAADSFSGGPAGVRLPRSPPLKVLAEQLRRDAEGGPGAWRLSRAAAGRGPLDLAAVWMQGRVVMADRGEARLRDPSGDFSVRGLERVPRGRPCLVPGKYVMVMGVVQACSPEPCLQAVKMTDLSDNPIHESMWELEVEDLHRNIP

Kd: 5 nM
Substance: FANCM MM2 (from UniProt Q8IYD8)
